# Residue numbers refer to the chain shown, from its start. Names may count otherwise.
# B1: E. coli tryptophanase Y74F mutant, holo form (enzyme)
# chain: MENFKHLPEPFRIRVIEPVKRTTRAYREEAIIKSGMNPFLLDSEDVFIDLLTDSGTGAVTQSMQAAMMRGDEAFSGSRSYYALAESVKNIFGYQYTIPTHQGRGAEQIYIPVLIKKREQEKGLDRSKMVAFSNYFFDTTQGHSQINGCTVRNVYIKEAFDTGVRYDFKGNFDLEGLERGIEEVGPNNVPYIVATITSNSAGGQPVSLANLKAMYSIAKKYDIPVVMDSARFAENAYFIKQREAEYKDWTIEQITRETYKYADMLAMSAKKDAMVPMGGLLCMKDDSFFDVYTECRTLCVVQEGFPTYGGLEGGAMERLAVGLYDGMNLDWLAYRIAQVQYLVDGLEEIGVVCQQAGGHAAFVDAGKLLPHIPADQFPAQALACELYKVAGIRAVEIGSFLLGRDPKTGKQLPCPAELLRLTIPRATYTQTHMDFIIEAFKHVKENAANIKGLTFTYEPKVLRHFTAKLKEV
# modifications: pyridoxal 5'-phosphate (PLP) covalently bound to Lys270
# notes: tryptophanase (Trpase), E. coli, Y74F mutant; the sample called 'Y74F holo' was run with 0.1 mM PLP; also called Y74F holo; source: E. coli BL21(DE3), pET17b plasmid, purified
# B2: E. coli tryptophanase C298S mutant, holo form (enzyme)
# chain: B1 chain with F74Y, C298S
# modifications: pyridoxal 5'-phosphate (PLP) covalently bound to Lys270
# notes: tryptophanase (Trpase), E. coli, C298S mutant; also called C298S holo; source: E. coli SVS 370 cells containing the tnaA gene with the site-directed mutation, purified as the wild type
# B3: E. coli tryptophanase C298S mutant, apo form (enzyme)
# chain: B1 chain with F74Y, C298S
# notes: tryptophanase (Trpase), E. coli, C298S mutant, without PLP; one monomer in the asymmetric unit of the crystal, the tetramer arises by symmetry; also called C298S apo; apo C298S; source: E. coli SVS 370 cells containing the tnaA gene with the site-directed mutation, purified; apo enzyme by overnight dialysis of the holo enzyme
# B4: E. coli tryptophanase Y74F mutant, apo form (enzyme)
# chain: B1 chain
# notes: tryptophanase (Trpase), E. coli, Y74F mutant, without PLP; one monomer in the asymmetric unit of the crystal, the tetramer arises by symmetry; also called Y74F apo; apo Y74F; source: E. coli BL21(DE3), pET17b plasmid, purified; apo enzyme by overnight dialysis of the holo enzyme
# B5: wild-type E. coli tryptophanase, apo form (enzyme)
# chain: not shown
# notes: tryptophanase (Trpase, EC 4.1.99.1), E. coli, wild type, without PLP; also called wt apo; apo wt Trpase; source: E. coli SVS 370 cells containing the tnaA gene on plasmids, purified; apo enzyme by overnight dialysis of the holo enzyme against 0.1 M sodium phosphate-ethylenediamine buffer, pH 8.0, 4°C
# B6: E. coli tryptophanase W330F mutant, apo form (enzyme)
# chain: not shown
# notes: tryptophanase (Trpase), E. coli, W330F mutant, without PLP; also called W330F apo; source: E. coli SVS 370 cells containing the tnaA gene with the site-directed mutation, purified; apo enzyme by overnight dialysis of the holo enzyme
# B7: wild-type E. coli tryptophanase, holo form (enzyme)
# chain: not shown
# modifications: pyridoxal 5'-phosphate (PLP) covalently bound to Lys270
# notes: tryptophanase (Trpase, EC 4.1.99.1), E. coli, wild type, ~52 kD per monomer; also called wt holo; wt Trpase; source: E. coli SVS 370 cells containing the tnaA gene on plasmids, purified (DEAE anion exchange, Sephacryl S-300-HR)
# B8: E. coli tryptophanase W330F mutant, holo form (enzyme)
# chain: not shown
# modifications: pyridoxal 5'-phosphate (PLP) covalently bound to Lys270
# notes: tryptophanase (Trpase), E. coli, W330F mutant; also called W330F holo; source: E. coli SVS 370 cells containing the tnaA gene with the site-directed mutation, purified as the wild type
# Legend:
# [1] = biological target: the molecule itself; test: SEC; HPLC gel filtration (BIOSEP-SEC S-3000) at 2°C after 20 h at 2°C; holo enzymes, 1 mg/ml, Tricine-KCl buffer pH 7.5 with PLP (0.1 mM by the table's footnote), 2 mM EDTA, 5 mM 2-mercaptoethanol; tetramer to dimers
# [2] = biological target: the molecule itself; test: SEC; HPLC gel filtration (BIOSEP-SEC S-3000) at 25°C; holo enzymes, 1 mg/ml, Tricine-KCl buffer pH 7.5 with PLP (0.1 mM by the table's footnote), 2 mM EDTA, 5 mM 2-mercaptoethanol; tetramer to dimers
# [3] = biological target: the molecule itself; test: SEC; time profile of cold dissociation at 2°C followed by HPLC gel filtration; Tricine-KCl buffer pH 7.5, protein 1.0 mg/ml; tetramer to dimers
# [4] = biological target: the molecule itself; test: SEC; HPLC gel filtration (BIOSEP-SEC S-3000) at 25°C; holo enzymes, 1 mg/ml, Tricine-KCl buffer pH 7.5 with PLP (0.1 mM by the table's footnote), 2 mM EDTA, 5 mM 2-mercaptoethanol; tetramer to dimers; remark: listed apart in the source
# [5] = biological target: the molecule itself; test: SEC; HPLC gel filtration (BIOSEP-SEC S-3000) at 25°C; apo enzymes, same Tricine-KCl buffer without PLP; tetramer to dimers (P. vulgaris: also to monomers)
# [6] = biological target: the molecule itself; test: SEC; HPLC gel filtration (BIOSEP-SEC S-3000) at 2°C after cooling (20 h; P. vulgaris 24 h); apo enzymes, same Tricine-KCl buffer without PLP; tetramer to dimers (P. vulgaris: also to monomers)
Protein,degree of dissociation to dimers (%) [1] [%],degree of dissociation to dimers (%) [2] [%],initial rate constant of cold dissociation (tetramer to dimers) [3] [min⁻¹],stoichiometry N [4],degree of dissociation to dimers (%) [5] [%],degree of dissociation to dimers (%) [6] [%]
B1,66,17,,,,
B2,64,< 5,0.0032,4,,
B3,,,,,> 80,88
B4,,,,,80,83
B5,,,,,70,87
B6,,,,,69,90
B7,20,< 3,0.00042,4,,
B8,61,< 5,0.00084,4,,

# From paper PMC2770544, “Conformational changes and loose packing promote E. coli Tryptophanase cold lability” (BMC Structural Biology, 2009)
